This is an account of results in paper PMC4286236.

Holding throughout (experiment): AraTM assay
For assay [1], the target named is Danio rerio PlxnA3 TM + JM (amino acids 1241-1314) L1284A, AraTM construct. The note with it: E. coli membranes; minimum of eleven replicates over three experiments; read off a plot.
For assay [2], the target named is Danio rerio PlxnA3 TM + JM (amino acids 1241-1314) L1274A, AraTM construct. The note with it: E. coli membranes; minimum of eleven replicates over three experiments; read off a plot.
The target of assay [3] is Danio rerio PlxnA3 TM + JM (amino acids 1241-1314) D1302Y, AraTM construct (EP-PCR mutant). The conditions noted are these: E. coli membranes; four replicates; read off a plot.
For assay [4], the target named is Danio rerio PlxnA3 TM + JM (amino acids 1241-1314) M1281F, AraTM construct. The conditions noted are these: E. coli membranes; minimum of eleven replicates over three experiments; read off a plot.
The target in assay [5] is Danio rerio PlxnA3 TM + JM (amino acids 1241-1314) M1281L, AraTM construct. The note with it: E. coli membranes; minimum of eleven replicates over three experiments; read off a plot.
Assay [6] concerns the target Danio rerio PlxnA3 TM + JM (amino acids 1241-1314) M1281T, AraTM construct. The note with it: E. coli membranes; minimum of eleven replicates over three experiments; read off a plot.
The target of assay [7] is Danio rerio PlxnA3 TM + JM (amino acids 1241-1314) V1288F, AraTM construct (EP-PCR mutant). The note with it: E. coli membranes; four replicates; read off a plot.
The target in assay [8] is Danio rerio PlxnA3 TM + JM (amino acids 1241-1314) L1277F, AraTM construct. The note with it: E. coli membranes; minimum of eleven replicates over three experiments; read off a plot.

Regarding “Danio rerio PlxnA3 TM + JM (amino acids 1241-1314), wild type, AraTM construct L1284A”, in assay [1], the other: % change in AraTM fluorescence/absorbance from WT (% change from WT) is -7.6.

As for “Danio rerio PlxnA3 TM + JM (amino acids 1241-1314), wild type, AraTM construct L1274A”, the other: % change in AraTM fluorescence/absorbance from WT (% change from WT) in assay [2] is -1.

On to “Danio rerio PlxnA3 TM + JM (amino acids 1241-1314), wild type, AraTM construct D1302Y”, for which the other: % change in AraTM fluorescence/absorbance from WT (% change from WT) in assay [3] stood at 85.

Take “Danio rerio PlxnA3 TM + JM (amino acids 1241-1314), wild type, AraTM construct M1281F”: the other: % change in AraTM fluorescence/absorbance from WT (% change from WT) in assay [4] was -7.2.

For “Danio rerio PlxnA3 TM + JM (amino acids 1241-1314), wild type, AraTM construct M1281L”, the other: % change in AraTM fluorescence/absorbance from WT (% change from WT) in assay [5] came out at 23.

For “Danio rerio PlxnA3 TM + JM (amino acids 1241-1314), wild type, AraTM construct M1281T”, the other: % change in AraTM fluorescence/absorbance from WT (% change from WT) in assay [6] is -12.

Regarding “Danio rerio PlxnA3 TM + JM (amino acids 1241-1314), wild type, AraTM construct V1288F”, the other: % change in AraTM fluorescence/absorbance from WT (% change from WT) in assay [7] turned out to be 25.

In the case of “Danio rerio PlxnA3 TM + JM (amino acids 1241-1314), wild type, AraTM construct L1277F”, the other: % change in AraTM fluorescence/absorbance from WT (% change from WT) in assay [8] was -2.3.
